Assay results published in patent US20230046828A1 (OXFORD UNIVERSITY INNOVATION, published 2023).

Legend:
CXCL12 (CXC Ligand 12) [1] = biological target: T1, CXCL12 (CXC Ligand 12) (UniProt O62657 22-89); test: BLI, biotinylated HMGB1 construct on streptavidin sensor, CXCL12 0-150 µM in solution; Michaelis-Menten (saturation) Req fit
T1 construct: mature; Untagged in BLI and NMR; CXCL12-His6 was used at 1 µM on the HMGB1 SPOT peptide arrays; also called CXCL12A-c021, wt 1-67, no tag; CXCL12-His6
T1 sequence (P48061 22-89): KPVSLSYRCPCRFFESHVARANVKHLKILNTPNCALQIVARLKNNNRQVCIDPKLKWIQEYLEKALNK
Protocol: (§1) Pre-hydrated streptavidin Octet Biosensors (FortéBio 18-5019) were coated with 4 μM solutions of biotinylated HMGB1 proteins in 10 mM HEPES, pH 7.5, 150 mM NaCl (Base buffer-BB) plus, 0.5 mM TCEP (60″ baseline, 60″ binding). Nonspecific binding was minimized by incubation for 3′ in BB+1% BSA+0.05% Tween-20 (Kinetics Buffer, KB) prior to kinetics assays. […] An OctetRed 384 instrument was used for these experiments. Kinetics data were extracted with DataAnalysis 9.0 (FortéBio). Response at equilibrium REq was plotted against concentration in a Michaelis-Menten saturation plot to calculate kD/Bₘₐₓ (saturation plot of concentration against rEq). Kinetic rates (association rate; kₒₙ and dissociation rate; koff) were derived from the direct measurements of each parameter from all the association and dissociation steps in the interferogram, and fitted to a horizontal line (mean) across all measurements. Data from each replicate run were pooled in the same manner to calculate the overall mean. For measuring RAGE binding kinetics to HMGB1, 15 μg/mL RAGE-Fc in PBS+0.1% BSA+0.02% Tween-20 was immobilized on the surface of anti-IgG biosensors (AHC, 18-5060) over 30″ and dipped in serial concentrations of each HMGB1 construct (60″ baseline, 200″ association/dissociation) and fitted in the same manner to derive kinetic parameters.

CXCL12 (CXC Ligand 12) [2] = biological target: T1, CXCL12 (CXC Ligand 12); test: BLI, biotinylated HMGB1 construct on streptavidin sensor, CXCL12 0-150 µM in solution; kinetics rates derived from interferogram
Protocol: as §1

[3] = biological target: T2, RAGE-Fc chimera protein (BioTechne, 1145-RG) (UniProt Q15109 24-344); test: BLI: RAGE-Fc on AHC sensors, HMGB1 construct 0-25 µM in solution; kinetics plot
T2 construct: Bought reagent; also called Fc-RAGE; not shown: CH domain of IgG (Fc)
T2 sequence (Q15109 24-344, change not shown): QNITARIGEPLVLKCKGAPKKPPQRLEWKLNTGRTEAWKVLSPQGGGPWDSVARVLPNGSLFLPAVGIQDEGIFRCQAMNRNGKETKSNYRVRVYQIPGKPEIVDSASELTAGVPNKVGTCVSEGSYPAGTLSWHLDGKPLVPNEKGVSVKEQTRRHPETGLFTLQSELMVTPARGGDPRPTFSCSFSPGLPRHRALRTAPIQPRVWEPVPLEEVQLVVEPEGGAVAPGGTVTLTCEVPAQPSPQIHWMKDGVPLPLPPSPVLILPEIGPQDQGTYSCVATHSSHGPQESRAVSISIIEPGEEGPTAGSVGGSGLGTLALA
Protocol: (§2) RAGE-Fc was immobilized in the surface of AHC sensors and dipped in rising concentration of different HMGB1 constructs. Two experiments were run with different concentration ranges: the three columns of graphs in the left, 0 to 22.22 μM HMGB1 over 9 steps; on the right, 0 to 25 μM over 7 steps. Both are color-coded by concentration (top). Colors indicate the specific construct concentration. Each graph corresponds to a single sensor (replicate).
as §1

[4] = biological target: T2, RAGE-Fc chimera protein (BioTechne, …); test: hybrid ELISA: HMGB1 construct coated, RAGE-Fc titrated, anti-human IgG-HRP, OD450 normalized to DS-HMGB1; saturation fit (Kd cell: Invalid fit)
Protocol: (§3) Nonspecific binding was blocked by incubation with 10% BSA in PBS for 2 h, at 20-25° C. A concentration range of RAGE-Fc chimera protein (BioTechne, 1145-RG; 0-640 nM in 1:4 dilutions) was added in 10% BSA/PBS and allowed to bind for 2 h, at 4° C. Bound FC chimera was detected by incubation with Anti-Human IgG HRP (Agilent Dako P021402-2) diluted 1:10000 in 1% BSA/PBS for 2 h, at 20-25° C. Between each of these 3 steps, the plate was washed with 100 μL PBST, three times.
(§4) OD 450 was measured as a readout (FluoStar OMEGA, BMG Labtech) and plotted as a saturation fit against 2× RAGE-Fc concentration (as the chimera is a RAGE dimer).

[5] = biological target: T2, RAGE-Fc chimera protein (BioTechne, …); test: BLI: RAGE-Fc on AHC sensors, HMGB1 construct 0-25 µM in solution; saturation fit
Protocol: as §2, §1

[6] = biological target: T2, RAGE-Fc chimera protein (BioTechne, …); test: hybrid ELISA: HMGB1 construct coated, RAGE-Fc titrated, anti-human IgG-HRP, OD450 normalized to DS-HMGB1; saturation fit
Protocol: as §3, §4

[7] = biological target: T2, RAGE-Fc chimera protein (BioTechne, …); test: BLI, RAGE-Fc on AHC sensors
Protocol: as §1

| Binder | Kd (CXCL12 (CXC Ligand 12) [1]) [µM] | Kd (CXCL12 (CXC Ligand 12) [2]) [µM] | koff (CXCL12 (CXC Ligand 12) [2]) [s⁻¹] | kon (CXCL12 (CXC Ligand 12) [2]) [M⁻¹ s⁻¹] | Kd [3] [µM] | koff [3] [s⁻¹] | kon [3] [M⁻¹ s⁻¹] | Bmax [4] [nM] | Kd [5] [µM] | Kd [6] [µM] | Kd [7] [µM] | fold association rate against FR-HMGB1 [7] [fold] | fold dissociation rate against FR-HMGB1 [7] [fold] |
| --- | --- | --- | --- | --- | --- | --- | --- | --- | --- | --- | --- | --- | --- |
| FR-HMGB1 Box A 1-88 (full HMG Box with flanking regions) (ligand, biotinylated in BLI, also called extended box A 1-88; c037; not shown: biotinylation tag) GKGDPKKPRGKMSSYAFFVQTCREEHKKKHPDASVNFSEFSKKCSERWKTMSAKEKGKFEDMAKADKARYEREMKTYIPPKGETKKKF | 12.6 | 6.1 | 0.079 | 13000 | – | – | – | – | – | – | – | – | – |
| DS Box A 1-88 (full HMG Box construct with flanking regions) (ligand, oxidized (disulfide Cys 22-Cys 44), also called oxidized Box A alone) GKGDPKKPRGKMSSYAFFVQTCREEHKKKHPDASVNFSEFSKKCSERWKTMSAKEKGKFEDMAKADKARYEREMKTYIPPKGETKKKF | – | – | – | – | 15.6 | 0.439 | 28000 | 0.08 | 53.4 | – | – | – | – |
| FR-HMGB1 Box B 94-162 (helical-only) (ligand, also: biotin or His6 tag in some assays, sequence not given here, also called HMGB1A-c028; not shown: C-terminal Avi / biotinylation tag (BLI, NMR) or His6 tag (reverse peptide array)) PKRPPSAFFLFCSEYRPKIKGEHPGLSIGDVAKKLGEMWNNTAADDKQPYEKKAAKLKEKYEKDIAAYR | 65 | 39 | 0.64 | 16000 | – | – | – | – | – | – | – | – | – |
| fully-reduced HMGB1, full-length (1-214) (ligand, cysteines reduced (Cys 22, Cys 44, Cys 105), Tags differ by assay: biotinylated (c011) in BLI with CXCL12, His6-tagged in the reverse peptide array, TEV-cleaved in the RAGE ELISA and BLI; also called FR-HMGB1; FR FL-HMGB1 (c011)) GKGDPKKPRGKMSSYAFFVQTCREEHKKKHPDASVNFSEFSKKCSERWKTMSAKEKGKFEDMAKADKARYEREMKTYIPPKGETKKKFKDPNAPKRPPSAFFLFCSEYRPKIKGEHPGLSIGDVAKKLGEMWNNTAADDKQPYEKKAAKLKEKYEKDIAAYRAKGKPDAAKKGVVKAEKSKKKKEEEEDEEDEEDEEEEEDEEDEDEEEDDDDE | 15.3 | 20.9 | 0.181 | 9000 | 0.8 | 0.041 | 51000 | – | 2.3 | 0.0861 | – | – | – |
| disulfide HMGB1, full-length (ligand, disulfide bond between Cys 22 and Cys 44, also called DS-HMGB1; FL-DS-HMGB1) GKGDPKKPRGKMSSYAFFVQTCREEHKKKHPDASVNFSEFSKKCSERWKTMSAKEKGKFEDMAKADKARYEREMKTYIPPKGETKKKFKDPNAPKRPPSAFFLFCSEYRPKIKGEHPGLSIGDVAKKLGEMWNNTAADDKQPYEKKAAKLKEKYEKDIAAYRAKGKPDAAKKGVVKAEKSKKKKEEEEDEEDEEDEEEEEDEEDEDEEEDDDDE | – | – | – | – | 0.2 | 0.043 | 215000 | – | 1.3 | 0.00435 | 0.2 to 1.3 | – | – |
| non-oxidizable 3S-HMGB1, full-length (1-214) (ligand, Biotinylated (c022) in BLI with CXCL12, His6-tagged in the reverse peptide array; also called 3S-FL HMGB1 (c022)) GKGDPKKPRGKMSSYAFFVQTSREEHKKKHPDASVNFSEFSKKSSERWKTMSAKEKGKFEDMAKADKARYEREMKTYIPPKGETKKKFKDPNAPKRPPSAFFLFSSEYRPKIKGEHPGLSIGDVAKKLGEMWNNTAADDKQPYEKKAAKLKEKYEKDIAAYRAKGKPDAAKKGVVKAEKSKKKKEEEEDEEDEEDEEEEEDEEDEDEEEDDDDE | 8.79 | 11.7 | 0.145 | 12000 | 0.9 | 0.015 | 17000 | – | 3 | 0.00722 | – | – | – |
| FR-HMGB1 Box A 8-78 (helical-only) (ligand, biotinylated in BLI, also called minimal Box A 8-78; c027; not shown: biotinylation tag (BLI) or His6 tag (reverse peptide array)) PRGKMSSYAFFVQTCREEHKKKHPDASVNFSEFSKKCSERWKTMSAKEKGKFEDMAKADKARYEREMKTYI | 17.5 | 18.7 | 0.312 | 17000 | – | – | – | – | – | – | – | – | – |
| dBB12L (double Box B HMGB1 construct with 12-residue linker) (ligand, also called dBB12L-HMGB1; dBB-HMGB1) KDPNAPKRPPSAFFLFCSEYRPKIKGEHPGLSIGDVAKKLGEMWNNTAADDKQPYEKKAAKLKEKYEKDIAAYRAKGKPDAAKKGVKDPNAPKRPPSAFFLFCSEYRPKIKGEHPGLSIGDVAKKLGEMWNNTAADDKQPYEKKAAKLKEKYEKDIAAYRAKGKPDAAKKGV | – | – | – | – | 1.3 | 0.206 | 164000 | 0.06 | 5.5 | – | – | 3 | 5 |
| DS-HMGB1 1-164 (ligand, oxidized Box A (disulfide Cys 22-Cys 44)) GKGDPKKPRGKMSSYAFFVQTCREEHKKKHPDASVNFSEFSKKCSERWKTMSAKEKGKFEDMAKADKARYEREMKTYIPPKGETKKKFKDPNAPKRPPSAFFLFCSEYRPKIKGEHPGLSIGDVAKKLGEMWNNTAADDKQPYEKKAAKLKEKYEKDIAAYRAK | – | – | – | – | 0.9 | 0.152 | 178000 | 0.2 | 3.1 | – | – | – | – |
| DS-HMGB1 1-184 (ligand, oxidized Box A (disulfide Cys 22-Cys 44)) GKGDPKKPRGKMSSYAFFVQTCREEHKKKHPDASVNFSEFSKKCSERWKTMSAKEKGKFEDMAKADKARYEREMKTYIPPKGETKKKFKDPNAPKRPPSAFFLFCSEYRPKIKGEHPGLSIGDVAKKLGEMWNNTAADDKQPYEKKAAKLKEKYEKDIAAYRAKGKPDAAKKGVVKAEKSKKKK | – | – | – | – | 0.2 | 0.067 | 349000 | – | 0.5 | 0.0339 | – | – | – |
| FR-HMGB1 Box B 89-174 (full HMG Box with flanking regions) (ligand, biotinylated in BLI and NMR, also called complete Box B; not shown: C-terminal biotinylation tag) SMKDPNAPKRPPSAFFLFCSEYRPKIKGEHPGLSIGDVAKKLGEMWNNTAADDKQPYEKKAAKLKEKYEKDIAAYRAKGKPDAAKKGV | 8.19 | 7.1 | 0.159 | 22000 | – | – | – | – | – | – | – | – | – |
